Test results reported in the supplement of paper PMC10567573.

B1: ZNF263 (parent)
chain: CSECGESFSRSSRLMSHQRTHTG

Variants of: B1
Assay: protein stability index of a GFP-peptide fusion (GPS, HEK-293T) (PSI 1-6); higher = more stable
Settings: c terminus: native
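Further: lentivirally expressed fusions sorted by FACS into six bins by GFP to DsRed ratio, PSI derived from sequencing read proportions per bin multiplied by bin number.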

Variant | protein stability index
CSECGEEFSRSSRLMSHQRTHTG [S7E] | 3.51
CSECGECFSRSSRLMSHQRTHTG [S7C] | 2.67
CSECGEHFSRSSRLMSHQRTHTG [S7H] | 2.58
CSECGEWFSRSSRLMSHQRTHTG [S7W] | 3.75
CSECGEMFSRSSRLMSHQRTHTG [S7M] | 3.59
CSECGEDFSRSSRLMSHQRTHTG [S7D] | 1.84
CSECGENFSRSSRLMSHQRTHTG [S7N] | 2.64
CSECGELFSRSSRLMSHQRTHTG [S7L] | 3.6
CSECGEVFSRSSRLMSHQRTHTG [S7V] | 4.13
CSECGEAFSRSSRLMSHQRTHTG [S7A] | 2.94
CSECGEKFSRSSRLMSHQRTHTG [S7K] | 2.72
CSECGEGFSRSSRLMSHQRTHTG [S7G] | 2.35
CSECGEPFSRSSRLMSHQRTHTG [S7P] | 2.63
CSECGESFSRFSRLMSHQRTHTG [S11F] | 3.14
CSECGESFSRCSRLMSHQRTHTG [S11C] | 3.34
CSECGESFSRDSRLMSHQRTHTG [S11D] | 2.1
CSECGESFSRHSRLMSHQRTHTG [S11H] | 3.47
CSECGESFSRKSRLMSHQRTHTG [S11K] | 3.55
CSECGESFSRNSRLMSHQRTHTG [S11N] | 2.31
CSECGESFSRGSRLMSHQRTHTG [S11G] | 3.13
CSECGESFSRPSRLMSHQRTHTG [S11P] | 4.22
CSECGESFSRISRLMSHQRTHTG [S11I] | 3.98
CSECGESFSRMSRLMSHQRTHTG [S11M] | 4.29
CSECGESFSRASRLMSHQRTHTG [S11A] | 4.04
CSECGESFWRSSRLMSHQRTHTG [S9W] | 2.84

Variant | protein stability index
CSECGESFNRSSRLMSHQRTHTG [S9N] | 2.67
CSECGESFARSSRLMSHQRTHTG [S9A] | 2.54
CSECGESFGRSSRLMSHQRTHTG [S9G] | 2.23
CSECGESFMRSSRLMSHQRTHTG [S9M] | 2.68
CSECGESFTRSSRLMSHQRTHTG [S9T] | 2.98
CSECGESFFRSSRLMSHQRTHTG [S9F] | 2.58
CSECGESFLRSSRLMSHQRTHTG [S9L] | 2.03
CSECGESFERSSRLMSHQRTHTG [S9E] | 3.67
CSECGESFYRSSRLMSHQRTHTG [S9Y] | 3.1
CSECGESFQRSSRLMSHQRTHTG [S9Q] | 1.94
CSECGESFIRSSRLMSHQRTHTG [S9I] | 2.4
CSECGESFHRSSRLMSHQRTHTG [S9H] | 2.99
CSECGESFCRSSRLMSHQRTHTG [S9C] | 2.35
CSECGESFPRSSRLMSHQRTHTG [S9P] | 1.74
CSECGESFKRSSRLMSHQRTHTG [S9K] | 2.23
CSECGESFDRSSRLMSHQRTHTG [S9D] | 4.09
CSECGESFVRSSRLMSHQRTHTG [S9V] | 2.42
CSECGESFRRSSRLMSHQRTHTG [S9R] | 2.37
CSECGESFSQSSRLMSHQRTHTG [R10Q] | 3.85
CSECGESFSWSSRLMSHQRTHTG [R10W] | 1.15
CSECGESFSNSSRLMSHQRTHTG [R10N] | 4.99
CSECGESFSVSSRLMSHQRTHTG [R10V] | 3.48
CSECGESFSYSSRLMSHQRTHTG [R10Y] | 2.83
CSECGESFSHSSRLMSHQRTHTG [R10H] | 4.29
CSECGESFSFSSRLMSHQRTHTG [R10F] | 2.51

Variant | protein stability index
CSECGESFSLSSRLMSHQRTHTG [R10L] | 3.71
CSECGESFSCSSRLMSHQRTHTG [R10C] | 4.11
CSECGESFSPSSRLMSHQRTHTG [R10P] | 2
CSECGESFSISSRLMSHQRTHTG [R10I] | 2.95
CSECGESFSASSRLMSHQRTHTG [R10A] | 2.98
CSECGESFSTSSRLMSHQRTHTG [R10T] | 5.16
CSECGESFSDSSRLMSHQRTHTG [R10D] | 5.6
CSECGESFSKSSRLMSHQRTHTG [R10K] | 2.68
CSECGESFSGSSRLMSHQRTHTG [R10G] | 2.95
CSECGESFSSSSRLMSHQRTHTG [R10S] | 5.28
CSECGESFSMSSRLMSHQRTHTG [R10M] | 3.62
CSECGESFSESSRLMSHQRTHTG [R10E] | 5.27
CSYCGESFSRSSRLMSHQRTHTG [E3Y] | 3.54
CSFCGESFSRSSRLMSHQRTHTG [E3F] | 3.31
CSICGESFSRSSRLMSHQRTHTG [E3I] | 4.09
CSTCGESFSRSSRLMSHQRTHTG [E3T] | 3.74
CSCCGESFSRSSRLMSHQRTHTG [E3C] | 1.8
CSGCGESFSRSSRLMSHQRTHTG [E3G] | 1.71
CSRCGESFSRSSRLMSHQRTHTG [E3R] | 2.12
CSACGESFSRSSRLMSHQRTHTG [E3A] | 2.37
CSMCGESFSRSSRLMSHQRTHTG [E3M] | 2.26
CSNCGESFSRSSRLMSHQRTHTG [E3N] | 2.58
CSPCGESFSRSSRLMSHQRTHTG [E3P] | 1.33
CSWCGESFSRSSRLMSHQRTHTG [E3W] | 3.35
CSVCGESFSRSSRLMSHQRTHTG [E3V] | 4.21

Variant | protein stability index
CSLCGESFSRSSRLMSHQRTHTG [E3L] | 2.9
CSDCGESFSRSSRLMSHQRTHTG [E3D] | 2.67
CSSCGESFSRSSRLMSHQRTHTG [E3S] | 1.87
CSQCGESFSRSSRLMSHQRTHTG [E3Q] | 3.33
CSHCGESFSRSSRLMSHQRTHTG [E3H] | 2.56
CSKCGESFSRSSRLMSHQRTHTG [E3K] | 2.68
CSEFGESFSRSSRLMSHQRTHTG [C4F] | 1.24
CSENGESFSRSSRLMSHQRTHTG [C4N] | 2.11
CSEDGESFSRSSRLMSHQRTHTG [C4D] | 2.31
CSEEGESFSRSSRLMSHQRTHTG [C4E] | 1.8
CSERGESFSRSSRLMSHQRTHTG [C4R] | 1.15
CSEPGESFSRSSRLMSHQRTHTG [C4P] | 1.51
CSEVGESFSRSSRLMSHQRTHTG [C4V] | 2.12
CSEAGESFSRSSRLMSHQRTHTG [C4A] | 1.56
CSEMGESFSRSSRLMSHQRTHTG [C4M] | 1.85
CSEGGESFSRSSRLMSHQRTHTG [C4G] | 1.82
CSEIGESFSRSSRLMSHQRTHTG [C4I] | 1.74
CSEHGESFSRSSRLMSHQRTHTG [C4H] | 1.4
CSEQGESFSRSSRLMSHQRTHTG [C4Q] | 1.53
CSETGESFSRSSRLMSHQRTHTG [C4T] | 1.56
CSEKGESFSRSSRLMSHQRTHTG [C4K] | 1.42
CSELGESFSRSSRLMSHQRTHTG [C4L] | 1.81
